Source: patent US20090317326A1 (published 2009)

B1: 3-CN,4-F-Benzoyl-Arg-Ava-Gln-Trp-Ala-Val-NMeGly-His-Sta-Leu-NH2 (peptide)
peptide: RXQWAVGHXL
modifications: not fully specified; N-terminal 3-cyano-4-fluoro-benzoyl group (F is 18F or 19F); Ava (5-aminovaleric acid) spacer; NMeGly (N-methylglycine); Sta (statine); C-terminal amide
notes: Synthetic bombesin analog
B2: 3-CN,4-F-Benzoyl-Arg-Ava-Gln-Trp-Ala-Val-Gly-His(3Me)-Sta-Leu-NH2 (peptide)
peptide: RXQWAVGHXL
modifications: not fully specified; N-terminal 3-cyano-4-fluoro-benzoyl group (F is 18F or 19F); Ava (5-aminovaleric acid) spacer; His(3Me) (3-methylhistidine); Sta (statine); C-terminal amide
notes: Synthetic bombesin analog
B3: 3-CF3,4-F-Benzoyl-Arg-Ava-Gln-Trp-Ala-Val-NMeGly-His-Sta-Leu-NH2 (peptide)
peptide: RXQWAVGHXL
modifications: not fully specified; N-terminal 3-trifluoromethyl-4-fluoro-benzoyl group (F is 18F or 19F); Ava (5-aminovaleric acid) spacer; NMeGly (N-methylglycine); Sta (statine); C-terminal amide
notes: Synthetic bombesin analog
B4: 4F,3CN-Bnz-Arg-Ava-Gln-Trp-Ala-Val-NMeGly-His(3Me)-Sta-Leu-NH2 (peptide)
peptide: RXQWAVGHXL
modifications: not fully specified; N-terminal 3-cyano-4-fluoro-benzoyl group (F is 18F or 19F); Ava (5-aminovaleric acid) spacer; NMeGly (N-methylglycine); His(3Me) (3-methylhistidine); Sta (statine); C-terminal amide
notes: Synthetic bombesin analog

molecular target: T1, human GRP receptor (human, UniProt P30550 1-384); assay: binding affinity (IC50); assay format, labelled ligand and receptor source not described
T1 construct: also called Gastrin-releasing peptide (GRP) receptor; GRP receptors
T1 sequence (P30550 whole entry): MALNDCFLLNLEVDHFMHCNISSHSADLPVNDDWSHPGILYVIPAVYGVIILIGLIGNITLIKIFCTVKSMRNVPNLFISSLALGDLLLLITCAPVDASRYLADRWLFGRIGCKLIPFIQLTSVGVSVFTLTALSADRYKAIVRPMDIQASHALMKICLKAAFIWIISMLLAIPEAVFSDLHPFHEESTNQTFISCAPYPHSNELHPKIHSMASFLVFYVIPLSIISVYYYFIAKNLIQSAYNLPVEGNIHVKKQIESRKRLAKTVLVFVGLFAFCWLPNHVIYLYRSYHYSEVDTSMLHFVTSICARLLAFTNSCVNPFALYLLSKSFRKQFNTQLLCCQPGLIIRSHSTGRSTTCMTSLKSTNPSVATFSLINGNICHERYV

Binder | IC50 [nM]
B1 | 1.9 to 2.7
B2 | 1
B3 | 0.3 to 1.8
B4 | 2.3
